# From publication PMC9110341, “A nucleotide-sensing oligomerization mechanism that controls NrdR-dependent transcription of ribonucleotide reductases” (Nature Communications, 2022)
# Substitutions are numbered along the chain they refer to. Values joined by “and” are separate entries in the source; they are usually repeats but may differ in a detail not shown here. Equal entries are not always repeated.
# T1: NrdR (Streptomyces coelicolor M145, UniProt O69980 1-182)
# T1 sequence: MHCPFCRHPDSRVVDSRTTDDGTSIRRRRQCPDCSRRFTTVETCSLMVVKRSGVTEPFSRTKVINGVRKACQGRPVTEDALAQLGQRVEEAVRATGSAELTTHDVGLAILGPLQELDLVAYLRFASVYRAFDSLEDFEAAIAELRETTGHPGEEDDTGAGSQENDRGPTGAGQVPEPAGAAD
# T2: NrdR D15A (Streptomyces coelicolor M145, UniProt O69980 1-182, D15A)
# T2 sequence: T1 sequence with D15A
# T3: NrdR D15A/R17A (Streptomyces coelicolor M145, UniProt O69980 1-182, D15A;R17A)
# T3 sequence: T1 sequence with D15A, R17A
# T4: NrdR R17A (Streptomyces coelicolor M145, UniProt O69980 1-182, R17A)
# T4 sequence: T1 sequence with R17A
# B1: Streptomyces coelicolor NrdR (wild type) (natural protein)
# chain: T1 sequence
# notes: RNR-specific transcriptional repressor NrdR of Streptomyces coelicolor strain M145; the nrdR gene cloned into pET30a(+), wild type; N-terminal Zn-ribbon domain followed by an ATP-cone domain and a C-terminal part; the wild-type nrdR gene was amplified, so probably the whole protein; Holds about 0.78 mol Zn per mol protein; also called apo-NrdR; ATP-loaded NrdR
# B2: nrdRJ promoter 57 bp (dsDNA)
# DNA 1: GCCAATCCCCACATCTAGTGGTTGGATAGCGTGAGCAGCCCACAAGTTGTGGTCCCC
# DNA 2: GGGGACCACAACTTGTGGGCTGCTCACGCTATCCAACCACTAGATGTGGGGATTGGC
# B3: nrdRJ G9/C18 (dsDNA)
# DNA 1: B2 DNA 1 with C9G, G18C
# DNA 2: B2 DNA 2 with C40G, G49C
# B4: nrdRJ C18/C49 (dsDNA)
# DNA 1: B2 DNA 1 with G18C, G49C
# DNA 2: B2 DNA 2 with C9G, C40G
# B5: nrdAB promoter 57 bp (dsDNA)
# DNA 1: CCGGGACACAACATCTGGGGGTGCTCGCGTCCCCCGGCACAAGATGTATGCTCATGC
# DNA 2: GCATGAGCATACATCTTGTGCCGGGGGACGCGAGCACCCCCAGATGTTGTGTCCCGG
# B6: cydA promoter 57 bp (dsDNA)
# DNA 1: GTAGGTCATAATTGCTTGTGAATGTGAACGCGTTCACAAGCGTGTCCCGATTGCGCC
# DNA 2: GGCGCAATCGGGACACGCTTGTGAACGCGTTCACATTCACAAGCAATTATGACCTAC
# B7: nrdRJ T9/T18/T40/T49 (dsDNA)
# DNA 1: B2 DNA 1 with C9T, G18T, C40T, G49T
# DNA 2: B2 DNA 2 with C9A, G18A, C40A, G49A
# Key:
# [1] = target: T5, NrdR (Streptomyces coelicolor, UniProt O69980); experiment: isothermal titration calorimetry, one set of sites; format: binding; details: 10 mM MgCl2, 50 mM Tris-HCl pH 8, 300 mM NaCl, 10% glycerol, 1 mM TCEP; 20 and 10 °C (which one not told)
# T5 construct: full-length wild type, C-terminal His tag (pET30a(+)::nrdR), E. coli BL21(DE3); apo dimer 44 kDa, dodecamer with ATP, octamer/tetramer with dATP + ATP
# [2] = target: T5, NrdR; experiment: isothermal titration calorimetry, one set of sites; format: binding
# [3] = target: NrdRΔNΔC, truncated S. coelicolor NrdR lacking both N- and C-terminal domains (Streptomyces coelicolor) (UniProt O69980); experiment: SEC; analytical SEC, Superdex 200 PC 3.2/30, 7 °C; 50 mM Tris-HCl pH 8.5, 50 mM KCl, 10 mM MgCl2, 0.5 mM TCEP, nucleotides in sample and buffer; 64 µM NrdR samples
# [4] = target: the molecule itself; experiment: GEMMA (gas-phase electrophoretic mobility molecular analysis); with dATP + ATP (50 µM nucleotide) and equimolar Mg acetate; 0.08 and 0.16 mg/ml; 100 mM ammonium acetate pH 7.3, 0.005% Tween-20
# [5] = target: the molecule itself; experiment: cryo-EM structure; ATP-loaded NrdR; 1 mM ATP and 10 mM MgCl2 added to apo-protein, SEC in 50 mM Tris-HCl pH 8.0, 150 mM NaCl, 10 mM MgCl2, 1 mM TCEP, 0.5 mM ATP; 0.4 mg/ml (19 µM monomer) on grids
# [6] = target: the molecule itself; experiment: GEMMA (gas-phase electrophoretic mobility molecular analysis); with 50 µM dAMP and equimolar Mg acetate; 0.08 mg/ml; 100 mM ammonium acetate pH 7.3, 0.005% Tween-20
# [7] = target: T1, NrdR; experiment: MST; 1 mM dATP + 1 mM ATP, 10 mM Mg2+; MST: 25 mM Tris-HCl pH 7.6, 150 mM NaCl, 10 mM MgCl2, 5% glycerol, 1 mM DTT, 0.05% Tween-20, nucleotides 1 mM each, 10 nM Cy5-dsDNA, room temperature; details: protein: recombinant; tags: C-terminal His6 (pET30a); chain copies: 4; label: 5'-Cy5 on sense strand; blunt
# [8] = target: T2, NrdR D15A; experiment: MST; 1 mM dATP + 1 mM ATP; MST: 25 mM Tris-HCl pH 7.6, 150 mM NaCl, 10 mM MgCl2, 5% glycerol, 1 mM DTT, 0.05% Tween-20, nucleotides 1 mM each, 10 nM Cy5-dsDNA, room temperature; details: protein: recombinant; tags: C-terminal His6 (pET30a); label: 5'-Cy5 on sense strand; blunt
# [9] = target: T3, NrdR D15A/R17A; experiment: as above; details: protein: recombinant; tags: C-terminal His6 (pET30a); label: 5'-Cy5 on sense strand; blunt
# [10] = target: T4, NrdR R17A; experiment: as above; details: protein: recombinant; tags: C-terminal His6 (pET30a); label: 5'-Cy5 on sense strand; blunt
# [11] = target: T1, NrdR; experiment: MST; 1 mM dATP + 1 mM ADP, 10 mM Mg2+; MST: 25 mM Tris-HCl pH 7.6, 150 mM NaCl, 10 mM MgCl2, 5% glycerol, 1 mM DTT, 0.05% Tween-20, nucleotides 1 mM each, 10 nM Cy5-dsDNA, room temperature; details: protein: recombinant; tags: C-terminal His6 (pET30a); chain copies: 4; label: 5'-Cy5 on sense strand; blunt
# [12] = target: T1, NrdR; experiment: MST; 1 mM dATP + 1 mM ATP; MST: 25 mM Tris-HCl pH 7.6, 150 mM NaCl, 10 mM MgCl2, 5% glycerol, 1 mM DTT, 0.05% Tween-20, nucleotides 1 mM each, 10 nM Cy5-dsDNA, room temperature; details: protein: recombinant; tags: C-terminal His6 (pET30a); chain copies: 4; label: 5'-Cy5 on sense strand; blunt
# [13] = target: T1, NrdR; experiment: MST; MST: 25 mM Tris-HCl pH 7.6, 150 mM NaCl, 10 mM MgCl2, 5% glycerol, 1 mM DTT, 0.05% Tween-20, nucleotides 1 mM each, 10 nM Cy5-dsDNA, room temperature; details: protein: recombinant; tags: C-terminal His6 (pET30a); chain copies: 4; label: 5'-Cy5 on sense strand; blunt
molecule,measurement,setting,value
Nc1ncnc2c1ncn2[C@@H]1O[C@@H]2COP(=O)(O)O[C@H]3[C@@H](O)[C@H](n4cnc5c(N)ncnc54)O[C@@H]3COP(=O)(O)O[C@H]2[C@H]1O [cyclic di-AMP],KD,[1],"AMP, dAMP, and di-cyclic AMP were comparable to ATP in binding strengths"
Nc1ncnc2c1ncn2[C@@H]1O[C@H](COP(=O)(O)OP(=O)(O)O)[C@@H](O)[C@H]1O [ADP],Kd,[2],600 nM
Nc1ncnc2c1ncn2[C@H]1C[C@H](O)[C@@H](COP(=O)(O)O)O1 [dAMP],KD,[1],"AMP, dAMP, and di-cyclic AMP were comparable to ATP in binding strengths"
Nc1ncnc2c1ncn2[C@H]1C[C@H](O)[C@@H](COP(=O)(O)OP(=O)(O)OP(=O)(O)O)O1 [dATP],Kd,[2],1000 nM
Nc1ncnc2c1ncn2[C@@H]1O[C@H](COP(=O)(O)OP(=O)(O)OP(=O)(O)O)[C@@H](O)[C@H]1O [ATP],Kd,[2],4000 nM
Nc1ncnc2c1ncn2[C@@H]1O[C@H](COP(=O)(O)O)[C@@H](O)[C@H]1O [AMP],KD,[1],"AMP, dAMP, and di-cyclic AMP were comparable to ATP in binding strengths"
"NrdRΔNΔC, truncated S. coelicolor NrdR lacking both N- and C-terminal domains (from UniProt O69980 1-182) (domain or fragment)",stoichiometry N,[3],2
Nc1ncnc2c1ncn2[C@H]1C[C@H](O)[C@@H](COP(=O)(O)OP(=O)(O)O)O1 [dADP],Kd,[2],400 nM
B1,stoichiometry N,[4],8 and 4
same,stoichiometry N,[5],12
same,stoichiometry N,[6],2
B2,Kd,[7],51 ± 11 nM
same,binding result,[8],binds
same,binding result,[9],no binding
same,binding result,[10],no binding
same,Kd,[11],68 ± 16 nM
B3,binding result,[10],no binding
same,fold decrease in affinity vs wild-type DNA,[12],~50 fold lower affinity than wild-type DNA
B4,binding result,[10],no binding
same,fold decrease in affinity vs wild-type DNA,[12],~60 fold lower affinity than wild-type DNA
B5,Kd,[7],142 ± 31 nM
same,Kd,[11],159 ± 22 nM
B6,Kd,[8],2600 ± 300 nM
same,binding result,[10],no binding
same,binding result,[13],no binding
B7,binding result,[10],no binding
